Laboratory results as given in patent US20200115416A1 (REGENTS OF THE UNIVERSITY OF MINNESOTA, published 2020).
Square brackets hold non-standard residues; d marks the D form. hPhe = N[C@@H](CCc1ccccc1)C(=O)O

Legend:
Experiment in all cases: cell-based or functional assay
[1] = target: T1, mouse melanocortin-1 receptor (mouse, UniProt Q01727 1-315)
[2] = target: mouse melanocortin-3 receptor (mouse, UniProt P33033 1-323)
[3] = target: mouse melanocortin-4 receptor (mouse, UniProt P56450 1-332)
[4] = target: mouse melanocortin-5 receptor (mouse, UniProt P41149 1-325)
mouse melanocortin-5 receptor, sequence (P41149 whole entry): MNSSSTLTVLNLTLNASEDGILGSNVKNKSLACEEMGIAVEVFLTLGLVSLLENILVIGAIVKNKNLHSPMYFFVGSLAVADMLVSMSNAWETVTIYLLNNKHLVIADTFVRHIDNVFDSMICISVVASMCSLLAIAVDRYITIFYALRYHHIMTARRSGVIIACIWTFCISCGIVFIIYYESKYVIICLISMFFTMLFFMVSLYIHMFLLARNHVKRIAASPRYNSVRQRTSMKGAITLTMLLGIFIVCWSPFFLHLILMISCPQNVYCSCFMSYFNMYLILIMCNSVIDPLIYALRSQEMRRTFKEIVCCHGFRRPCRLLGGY

[5] = target: T1, mouse melanocortin-1 receptor; remark: listed apart in the source

mouse melanocortin-3 receptor, sequence (P33033 whole entry): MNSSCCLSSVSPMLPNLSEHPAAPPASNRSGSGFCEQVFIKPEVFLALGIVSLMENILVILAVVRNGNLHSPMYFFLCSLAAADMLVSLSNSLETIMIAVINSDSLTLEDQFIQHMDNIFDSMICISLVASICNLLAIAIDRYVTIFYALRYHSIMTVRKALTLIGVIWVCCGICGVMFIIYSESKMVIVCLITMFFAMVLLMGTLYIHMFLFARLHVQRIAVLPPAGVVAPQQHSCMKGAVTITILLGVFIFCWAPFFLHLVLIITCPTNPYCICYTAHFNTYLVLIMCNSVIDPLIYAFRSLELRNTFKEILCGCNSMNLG
mouse melanocortin-4 receptor, sequence (P56450 whole entry): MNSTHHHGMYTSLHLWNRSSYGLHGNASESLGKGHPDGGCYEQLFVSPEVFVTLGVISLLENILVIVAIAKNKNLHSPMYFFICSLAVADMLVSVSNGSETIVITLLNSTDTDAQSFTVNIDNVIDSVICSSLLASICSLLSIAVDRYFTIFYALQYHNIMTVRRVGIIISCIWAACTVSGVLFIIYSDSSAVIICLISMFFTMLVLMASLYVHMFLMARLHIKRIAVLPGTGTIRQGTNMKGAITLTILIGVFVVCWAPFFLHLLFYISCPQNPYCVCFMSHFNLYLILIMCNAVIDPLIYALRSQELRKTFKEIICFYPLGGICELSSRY
T1 sequence (Q01727 whole entry): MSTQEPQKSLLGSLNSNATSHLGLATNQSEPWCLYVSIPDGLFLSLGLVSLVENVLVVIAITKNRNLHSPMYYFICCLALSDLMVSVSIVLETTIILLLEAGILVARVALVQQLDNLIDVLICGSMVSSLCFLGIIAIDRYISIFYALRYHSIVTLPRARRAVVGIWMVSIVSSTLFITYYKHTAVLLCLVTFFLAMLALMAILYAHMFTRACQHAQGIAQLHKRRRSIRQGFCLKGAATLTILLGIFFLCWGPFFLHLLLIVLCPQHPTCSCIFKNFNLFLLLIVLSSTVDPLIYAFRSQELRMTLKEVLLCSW

| % maximal NDP-MSH response at 100 µM (cAMP AlphaScreen) [1] [%] | % maximal NDP-MSH response at 100 µM (cAMP AlphaScreen) [2] [%] | antagonist pA2 (Schild, agonist NDP-MSH) [2] | % maximal NDP-MSH response at 100 µM (cAMP AlphaScreen) [3] [%] | antagonist pA2 (Schild, agonist NDP-MSH) [3] | agonist EC50 (cAMP AlphaScreen) [4] [µM] | % receptor stimulation at 100 µM (cAMP AlphaScreen) [5] [%] | inverse agonist apparent potency [4] [µM] | inverse agonist, % decrease from basal cAMP [4] [%] | agonist EC50 (cAMP AlphaScreen) [3] [µM] | % maximal NDP-MSH response at 100 µM (cAMP AlphaScreen) [4] [%] | agonist EC50 (cAMP AlphaScreen) [1] [µM] | agonist EC50 (cAMP AlphaScreen) [2] [µM] | inverse agonist, % change from basal cAMP at 100 µM [4] [%] | Binder |
| --- | --- | --- | --- | --- | --- | --- | --- | --- | --- | --- | --- | --- | --- | --- |
| 80 | 25 | < 5.5 | 25 | 6.18 | > 100 |  |  |  |  |  |  |  |  | cyclo(PRFFNLF[dP]) (SMILES CC(C)C[C@@H]1NC(=O)[C@H](CC(N)=O)NC(=O)[C@H](Cc2ccccc2)NC(=O)[C@H](Cc2ccccc2)NC(=O)[C@H](CCCNC(=N)N)NC(=O)[C@@H]2CCCN2C(=O)[C@H]2CCCN2C(=O)[C@H](Cc2ccccc2)NC1=O) [c[Pro-Arg-Phe-Phe-Asn-Leu-Phe-DPro]] |
|  |  |  |  |  |  | 35 |  |  |  |  |  |  |  | cyclo(PRF[hPhe]NAF[dP]) [c[Pro-Arg-Phe-hPhe-Asn-Ala-Phe-DPro]] |
| 80 | 40 | 5.7 | 50 | 6.81 |  |  | 0.15 | -20 |  |  |  |  |  | cyclo(PRFFWAF[dP]) (SMILES C[C@@H]1NC(=O)[C@H](Cc2c[nH]c3ccccc23)NC(=O)[C@H](Cc2ccccc2)NC(=O)[C@H](Cc2ccccc2)NC(=O)[C@H](CCCNC(=N)N)NC(=O)[C@@H]2CCCN2C(=O)[C@H]2CCCN2C(=O)[C@H](Cc2ccccc2)NC1=O) [c[Pro-Arg-Phe-Phe-Trp-Ala-Phe-DPro]] |
| 60 | 45 | < 5.5 |  | 6.11 |  |  |  |  | > 100 | 45 |  |  |  | cyclo(PRFFNKF[dP]) (SMILES N=C(N)NCCC[C@@H]1NC(=O)[C@@H]2CCCN2C(=O)[C@H]2CCCN2C(=O)[C@H](Cc2ccccc2)NC(=O)[C@H](CCCCN)NC(=O)[C@H](CC(N)=O)NC(=O)[C@H](Cc2ccccc2)NC(=O)[C@H](Cc2ccccc2)NC1=O) [c[Pro-Arg-Phe-Phe-Asn-Lys-Phe-DPro]] |
|  |  | < 5.5 |  | 6.1 |  |  |  |  | > 100 |  | > 100 | > 100 | -35 | cyclo(PRFFNGF[dP]) (SMILES N=C(N)NCCC[C@@H]1NC(=O)[C@@H]2CCCN2C(=O)[C@H]2CCCN2C(=O)[C@H](Cc2ccccc2)NC(=O)CNC(=O)[C@H](CC(N)=O)NC(=O)[C@H](Cc2ccccc2)NC(=O)[C@H](Cc2ccccc2)NC1=O) [c[Pro-Arg-Phe-Phe-Asn-Gly-Phe-DPro]] |
| 60 |  | < 5.5 |  | < 5.5 | > 100 |  |  |  | > 100 |  |  | > 100 |  | cyclo(PRFFNEF[dP]) (SMILES N=C(N)NCCC[C@@H]1NC(=O)[C@@H]2CCCN2C(=O)[C@H]2CCCN2C(=O)[C@H](Cc2ccccc2)NC(=O)[C@H](CCC(=O)O)NC(=O)[C@H](CC(N)=O)NC(=O)[C@H](Cc2ccccc2)NC(=O)[C@H](Cc2ccccc2)NC1=O) [c[Pro-Arg-Phe-Phe-Asn-Glu-Phe-DPro]] |
|  |  | 6.1 |  | 8.16 |  |  |  |  | > 100 |  | > 100 | > 100 | -25 | cyclo(PRFFNAA[dP]) (SMILES C[C@@H]1NC(=O)[C@H](CC(N)=O)NC(=O)[C@H](Cc2ccccc2)NC(=O)[C@H](Cc2ccccc2)NC(=O)[C@H](CCCNC(=N)N)NC(=O)[C@@H]2CCCN2C(=O)[C@H]2CCCN2C(=O)[C@H](C)NC1=O) [c[Pro-Arg-Phe-Phe-Asn-Ala-Ala-DPro]] |
| 65 |  | < 5.5 |  | < 5.5 |  |  |  |  | > 100 |  |  | > 100 | -25 | cyclo(PRFFNDF[dP]) (SMILES N=C(N)NCCC[C@@H]1NC(=O)[C@@H]2CCCN2C(=O)[C@H]2CCCN2C(=O)[C@H](Cc2ccccc2)NC(=O)[C@H](CC(=O)O)NC(=O)[C@H](CC(N)=O)NC(=O)[C@H](Cc2ccccc2)NC(=O)[C@H](Cc2ccccc2)NC1=O) [c[Pro-Arg-Phe-Phe-Asn-Asp-Phe-DPro]] |
|  |  | 6.46 |  |  |  |  | 0.01 | -15 |  |  | > 100 | > 100 |  | cyclo(PRFFHAF[dP]) (SMILES C[C@@H]1NC(=O)[C@H](Cc2c[nH]cn2)NC(=O)[C@H](Cc2ccccc2)NC(=O)[C@H](Cc2ccccc2)NC(=O)[C@H](CCCNC(=N)N)NC(=O)[C@@H]2CCCN2C(=O)[C@H]2CCCN2C(=O)[C@H](Cc2ccccc2)NC1=O) [c[Pro-Arg-Phe-Phe-His-Ala-Phe-DPro]] |
| 55 |  | < 5.5 |  | 5.9 |  |  | 0.51 | -25 | > 100 |  |  | > 100 |  | cyclo(PRFFVAF[dP]) [c[Pro-Arg-Phe-Phe-Val-Ala-Phe-DPro]] |
|  |  | < 5.5 |  | 6.63 | > 100 |  |  |  | > 100 |  | > 100 | > 100 |  | cyclo(PRFFFAF[dP]) (SMILES C[C@@H]1NC(=O)[C@H](Cc2ccccc2)NC(=O)[C@H](Cc2ccccc2)NC(=O)[C@H](Cc2ccccc2)NC(=O)[C@H](CCCNC(=N)N)NC(=O)[C@@H]2CCCN2C(=O)[C@H]2CCCN2C(=O)[C@H](Cc2ccccc2)NC1=O) [c[Pro-Arg-Phe-Phe-Phe-Ala-Phe-DPro]] |
| 70 | 35 | 5.72 | 35 | 5.71 |  |  |  |  |  | 25 |  |  |  | cyclo(PRFFNFF[dP]) (SMILES N=C(N)NCCC[C@@H]1NC(=O)[C@@H]2CCCN2C(=O)[C@H]2CCCN2C(=O)[C@H](Cc2ccccc2)NC(=O)[C@H](Cc2ccccc2)NC(=O)[C@H](CC(N)=O)NC(=O)[C@H](Cc2ccccc2)NC(=O)[C@H](Cc2ccccc2)NC1=O) [c[Pro-Arg-Phe-Phe-Asn-Phe-Phe-DPro]] |
|  |  | < 5.5 |  | 6.07 | > 100 |  |  |  | > 100 |  | 2.6 | > 100 |  | cyclo(PRFFNHF[dP]) (SMILES N=C(N)NCCC[C@@H]1NC(=O)[C@@H]2CCCN2C(=O)[C@H]2CCCN2C(=O)[C@H](Cc2ccccc2)NC(=O)[C@H](Cc2c[nH]cn2)NC(=O)[C@H](CC(N)=O)NC(=O)[C@H](Cc2ccccc2)NC(=O)[C@H](Cc2ccccc2)NC1=O) [c[Pro-Arg-Phe-Phe-Asn-His-Phe-DPro]] |
